B1: SEQ ID NO: 525 (designed binder)
chain: MGSWYQFKDDLAHIKHLLEALGGSEAELAVFEYIIADFESFLQIYKGKGNPEVEALRKEAAAIRDELQAYRHN
notes: D domain, on phage
B2: SEQ ID NO: 528 (designed binder)
chain: MGSWFQFKEFLAMITHNLEALGGSEAELAEFEHDIALFESELQQYKGKGNPEVEALRKEAAAIRDELQAYRHN
notes: D domain, on phage
B3: SEQ ID NO: 514 (designed binder)
chain: MGSWIWFKDWLADIKDLLEALGGSEAELAEFEYDIALFEDQLQAYKGKGNPEVEALRKEAAAIRDELQAYRHN
notes: D domain, on phage
B4: SEQ ID NO: 540 (designed binder)
chain: MGSWYEFDDRLDAIAYRLNALGGSEAELAWFEWEIAEFELDLQWYKGKGNPEVEALVWEADAIEWELEAYRHN
notes: D domain, on phage
B5: SEQ ID NO: 539 (designed binder)
chain: MGSWSEFDSRLDAIAYRLFALGGSEAELAQFEWIIADFEEDLQMYKGKGNPEVEALFSEAYAIEIELNAYRHN
notes: D domain, on phage
B6: SEQ ID NO: 532 (designed binder)
chain: MGSWFEFKWTLALIKQELEALGGSEAELADFEQEIAEFEWWLQTYKGKGNPEVEALRKEAAAIRDELQAYRHN
notes: D domain, on phage
B7: SEQ ID NO: 541 (designed binder)
chain: MGSWFEFDERLDAIGSRLTALGGSEAELASFEFYIADFEEWLQQYKGKGNPEVEALEWEAFAIDEELGAYRHN
notes: D domain, on phage
B8: SEQ ID NO: 537 (designed binder)
chain: MGSWYEFDHRLDAIYQRLWALGGSEAELAEFEYGIAEFEEYLQDYKGKGNPEVEALISEAWAIEWELSAYRHN
notes: D domain, on phage
B9: SEQ ID NO: 515 (designed binder)
chain: MGSWGWFKHELAFIKADLEALGGSEAELAWFEEEIAEFEYELQFYKGKGNPEVEALRKEAAAIRDELQAYRHN
notes: D domain, on phage
B10: SEQ ID NO: 519 (designed binder)
chain: MGSWLYFKEYLADIKSDLEALGGSEAELAWFEYEIADFEEQLQYYKGKGNPEVEALRKEAAAIRDELQAYRHN
notes: D domain, on phage
B11: SEQ ID NO: 522 (designed binder)
chain: MGSWWDFKDWLAEIKHDLEALGGSEAELALFESEIADFEFGLQWYKGKGNPEVEALRKEAAAIRDELQAYRHN
notes: D domain, on phage
B12: SEQ ID NO: 535 (designed binder)
chain: MGSWWEFDHRLTAIDTRLQALGGSEAELAEFESSIAEFEWWLQDYKGKGNPEVEALFAEAEAIYVELDAYRHN
notes: D domain, on phage
B13: SEQ ID NO: 504 (designed binder)
chain: MGSWFMFKEELADIKDWLEALGGSEAELASFESYIAWFEQDLQWYKGKGNPEVEALRKEAAAIRDELQAYRHN
notes: D domain, on phage
B14: SEQ ID NO: 534 (designed binder)
chain: MGSWAEFKQRLAAIKTRLEALGGSEAELAAFEWEIVAFFSELFAYKGKGNPEVEALRDEAIAIETELVAYRHN
notes: D domain, on phage
B15: SEQ ID NO: 505 (designed binder)
chain: MGSWFMFKQELAWIKEDLEALGGSEAELADFEWDIAEFEWDLQYYKGKGNPEVEALRKEAAAIRDELQAYRHN
notes: D domain, on phage
B16: SEQ ID NO: 506 (designed binder)
chain: MGSWQIFKGELAYIKQYLEALGGSEAELAFFEFDIAEFEEDLQYYKGKGNPEVEALRKEAAAIRDELQAYRHN
notes: D domain, on phage
B17: SEQ ID NO: 509 (designed binder)
chain: MGSWYQFKTELAWIKDDLEALGGSEAELAWFEWVIADFEDDLQFYKGKGNPEVEALRKEAAAIRDELQAYRHN
notes: D domain, on phage
B18: SEQ ID NO: 531 (designed binder)
chain: MGSWTEFKGELAEIKWILEALGGSEAELAFFEDEIAAFEWDLQKYKGKGNPEVEALRKEAAAIRDELQAYRHN
notes: D domain, on phage
B19: SEQ ID NO: 533 (designed binder)
chain: MGSWAEFKQRLAAIKTRLEALGGSEAELAAFMDEIMAFEWELWAYKGKGNPEVEALMNEAFAIDVELYAYRHN
notes: D domain, on phage
B20: SEQ ID NO: 543 (designed binder)
chain: MGSWEEFDVRLDAIFNRLWALGGSEAELAEFEFDIAWFEMDLQEYKGKGNPEVEALFDEAEAITNELVAYRHN
notes: D domain, on phage
B21: SEQ ID NO: 529 (designed binder)
chain: MGSWHWFKEDLAMITDVLEALGGSEAELAAFESEIAVFEADLQYYKGKGNPEVEALRKEAAAIRDELQAYRHN
notes: D domain, on phage
B22: SEQ ID NO: 530 (designed binder)
chain: MGSWSWFQWDLAGIKDHLEALGGSEAELAEFESEIAYFEDELQWYKGKGNPEVEALRKEAAAIRDELQAYRHN
notes: D domain, on phage
B23: SEQ ID NO: 513 (designed binder)
chain: MGSWHVFKTELADIKFYLEALGGSEAELAMFELWIAEFEHELQDYKGKGNPEVEALRKEAAAIRDELQAYRHN
notes: D domain, on phage
B24: SEQ ID NO: 526 (designed binder)
chain: MGSWAEFKHDLADIKRELEALGGSEAELAWFELSIAFFEDELQHYKGKGNPEVEALRKEAAAIRDELQAYRHN
notes: D domain, on phage
B25: SEQ ID NO: 538 (designed binder)
chain: MGSWYEFDMRLDAIWERLTALGGSEAELADFEQYIAEFERQLQDYKGKGNPEVEALFDEAWAIEDELYAYRHN
notes: D domain, on phage
B26: SEQ ID NO: 542 (designed binder)
chain: MGSWEEFDQRLDAIDVRLYALGGSEAELAEFEFDIAAFEEWLQLYKGKGNPEVEALNMEAFAITDELCAYRHN
notes: D domain, on phage
B27: SEQ ID NO: 507 (designed binder)
chain: MGSWDFFKEELAEIKHYLEALGGSEAELAFFEFWIADFEQDLQEYKGKGNPEVEALRKEAAAIRDELQAYRHN
notes: D domain, on phage
B28: SEQ ID NO: 508 (designed binder)
chain: MGSWFNFKEELAVIKFQLEALGGSEAELAFFEWVIADFEDDLQEYKGKGNPEVEALRKEAAAIRDELQAYRHN
notes: D domain, on phage
B29: SEQ ID NO: 523 (designed binder)
chain: MGSWDEFKEDLAHIKTDLEALGGSEAELALFEDEIADFEMYLQHYKGKGNPEVEALRKEAAAIRDELQAYRHN
notes: D domain, on phage
B30: SEQ ID NO: 536 (designed binder)
chain: MGSWWEFQFRLYAIDQRLLALGGSEAELAEFEQDIADFEWMLQDYKGKGNPEVEALMLEADAIEAELKAYRHN
notes: D domain, on phage
B31: SEQ ID NO: 520 (designed binder)
chain: MGSWHWFKEELAEIKEDLVALGGSEAELAWFEYDIAMFELSLQNYKGKGNPEVEALRKEAAAIRDELQAYRHN
notes: D domain, on phage
B32: SEQ ID NO: 521 (designed binder)
chain: MGSWNDFKEELAWIKFDLEALGGSEAELAWFEEDIAMFEQQLQAYKGKGNPEVEALRKEAAAIRDELQAYRHN
notes: D domain, on phage
B33: SEQ ID NO: 527 (designed binder)
chain: MGSWVVFKQDLADINHQLEALGGSEAELAWFEWEIADFEWELQHYKGKGNPEVEALRKEAAAIRDELQAYRHN
notes: D domain, on phage
B34: SEQ ID NO: 516 (designed binder)
chain: MGSWTWFKDNLAWIKEDLEALGGSEAELAWFELEIASFETALQDYKGKGNPEVEALRKEAAAIRDELQAYRHN
notes: D domain, on phage
B35: SEQ ID NO: 517 (designed binder)
chain: MGSWTYFKNDLAGIKEDLEALGGSEAELAQFEFEIAEFEWLLQDYKGKGNPEVEALRKEAAAIRDELQAYRHN
notes: D domain, on phage
B36: SEQ ID NO: 518 (designed binder)
chain: MGSWTWFKWDLADIKGDLEALGGSEAELAFFEEEIAEFEWRLQDYKGKGNPEVEALRKEAAAIRDELQAYRHN
notes: D domain, on phage
B37: SEQ ID NO: 524 (designed binder)
chain: MGSWDFFKYDLANINEWLEALGGSEAELADFEYGIADFELWLQDYKGKGNPEVEALRKEAAAIRDELQAYRHN
notes: D domain, on phage
B38: SEQ ID NO: 512 (designed binder)
chain: MGSWWLFKEQLALIKYNLEALGGSEAELADFESWIAEFEHQLQEYKGKGNPEVEALRKEAAAIRDELQAYRHN
notes: D domain, on phage
B39: SEQ ID NO: 510 (designed binder)
chain: MGSWFEFKDYLADIKWDLEALGGSEAELAIFEHDIAYFEHNLQQYKGKGNPEVEALRKEAAAIRDELQAYRHN
notes: D domain, on phage
B40: SEQ ID NO: 511 (designed binder)
chain: MGSWVRFKDFLADIKMDLEALGGSEAELADFEYHIAEFEHNLQEYKGKGNPEVEALRKEAAAIRDELQAYRHN
notes: D domain, on phage

The target of the test is T1, recombinant human CD123-Fc (human, UniProt P26951 19-305).
T1 construct: not shown: Fc part of CD123-Fc
T1 sequence: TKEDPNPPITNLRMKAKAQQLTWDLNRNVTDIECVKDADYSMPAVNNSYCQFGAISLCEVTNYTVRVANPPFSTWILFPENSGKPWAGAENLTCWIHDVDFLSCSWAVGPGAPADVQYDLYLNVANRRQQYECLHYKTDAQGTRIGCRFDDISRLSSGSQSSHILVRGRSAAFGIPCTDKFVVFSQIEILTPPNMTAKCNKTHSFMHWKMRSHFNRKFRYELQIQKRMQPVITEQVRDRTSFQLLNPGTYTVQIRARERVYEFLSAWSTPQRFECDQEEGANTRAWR
As to the kind of experiment: phage ELISA, captured CD123-Fc. In a few lines:
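Phage from BCMA panning colonies were rescued with VCSM13 helper phage and diluted 5× in blocking buffer. Plates coated with anti-human IgG1-Fc captured 5 nM target-Fc or IgG1-Fc, and binding was detected with HRP anti-M13. Ratio = A450 target/A450 IgG1-Fc, averaged over the clone's wells.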
As for B1, the ELISA_avg was 4 ratio A450 target/IgG1-Fc.

For the molecule B2, the ELISA_avg came out at 3.1 ratio A450 target/IgG1-Fc.

Take B3: the ELISA_avg came out at 7.3 ratio A450 target/IgG1-Fc.

With B4, the ELISA_avg is 4.6 ratio A450 target/IgG1-Fc.

As for B5, the ELISA_avg turned out to be 4.3 ratio A450 target/IgG1-Fc.

As for B6, the ELISA_avg was 4.9 ratio A450 target/IgG1-Fc.

Regarding B7, the ELISA_avg was 3.8 ratio A450 target/IgG1-Fc.

With B8, the ELISA_avg is 4.6 ratio A450 target/IgG1-Fc.

With B9, the ELISA_avg is 3.3 ratio A450 target/IgG1-Fc.

B10: the ELISA_avg stood at 3.7 ratio A450 target/IgG1-Fc.

As for B11, the ELISA_avg amounted to 4.2 ratio A450 target/IgG1-Fc.

B12: the ELISA_avg was 4.3 ratio A450 target/IgG1-Fc.

As for B13, the ELISA_avg is 5.7 ratio A450 target/IgG1-Fc.

As for B14, the ELISA_avg stood at 3.6 ratio A450 target/IgG1-Fc.

For the molecule B15, the ELISA_avg worked out at 7.2 ratio A450 target/IgG1-Fc.

As for B16, the ELISA_avg was 4.7 ratio A450 target/IgG1-Fc.

In the case of B17, the ELISA_avg was 6.6 ratio A450 target/IgG1-Fc.

Take B18: the ELISA_avg amounted to 8.2 ratio A450 target/IgG1-Fc.

Consider B19, for which the ELISA_avg was 3.4 ratio A450 target/IgG1-Fc.

Take B20: the ELISA_avg was 4.7 ratio A450 target/IgG1-Fc.

On to B21, for which the ELISA_avg is 5.2 ratio A450 target/IgG1-Fc.

On to B22, for which the ELISA_avg stood at 12.9 ratio A450 target/IgG1-Fc.

As for B23, the ELISA_avg was determined as 5.4 ratio A450 target/IgG1-Fc.

Turning to B24, the ELISA_avg was determined as 3.3 ratio A450 target/IgG1-Fc.

Consider B25, for which the ELISA_avg was 13.7 ratio A450 target/IgG1-Fc.

As to B26, the ELISA_avg turned out to be 3.6 ratio A450 target/IgG1-Fc.

B27: the ELISA_avg was found to be 3.7 ratio A450 target/IgG1-Fc.

For B28, the ELISA_avg came to 6.1 ratio A450 target/IgG1-Fc.

Take B29: the ELISA_avg was 6.3 ratio A450 target/IgG1-Fc.

With B30, the ELISA_avg was 3.1 ratio A450 target/IgG1-Fc.

With B31, the ELISA_avg was 3.1 ratio A450 target/IgG1-Fc.

Take B32: the ELISA_avg is 3.8 ratio A450 target/IgG1-Fc.

B33: the ELISA_avg is 3.6 ratio A450 target/IgG1-Fc.

Regarding B34, the ELISA_avg stood at 6.9 ratio A450 target/IgG1-Fc.

On to B35, for which the ELISA_avg worked out at 3.6 ratio A450 target/IgG1-Fc.

With B36, the ELISA_avg amounted to 5.9 ratio A450 target/IgG1-Fc.

Regarding B37, the ELISA_avg amounted to 5.5 ratio A450 target/IgG1-Fc.

In the case of B38, the ELISA_avg came out at 4.1 ratio A450 target/IgG1-Fc.

As to B39, the ELISA_avg stood at 3.8 ratio A450 target/IgG1-Fc.

Consider B40, for which the ELISA_avg stood at 5.8 ratio A450 target/IgG1-Fc.

(Values after patent publication US20230125550A1 (ARCELLX, published 2023).)
